These are literature values, as cited in paper PMC3625564.

As a reminder, the Kd is a measure of binding affinity in units of concentration.

The target of this series is Endocan (Homo sapiens) (UniProt Q9NQ30). Put plainly: biosensor.
UniProt Q9NQ30, sequence (Q9NQ30 20-184): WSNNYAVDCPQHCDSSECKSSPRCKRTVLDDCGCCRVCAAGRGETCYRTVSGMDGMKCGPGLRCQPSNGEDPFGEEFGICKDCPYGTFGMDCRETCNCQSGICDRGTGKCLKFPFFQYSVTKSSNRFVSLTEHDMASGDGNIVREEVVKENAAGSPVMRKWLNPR

For HGF (from UniProt P14210), the Kd is 4.5 nM.
